PMC12723238, “Structural basis for T-cell intracellular antigen-1 amyloid fibril formation revealed by cryo-electron microscopy” (PNAS Nexus, 2025)
Positions count from the first letter of the chain named. Names may count otherwise.

B1: full-length human TIA-1 WT (natural protein, UniProt P31483 1-386, looked up)
chain: MEDEMPKTLYVGNLSRDVTEALILQLFSQIGPCKNCKMIMDTAGNDPYCFVEFHEHRHAAAALAAMNGRKIMGKEVKVNWATTPSSQKKDTSSSTVVSTQRSQDHFHVFVGDLSPEITTEDIKAAFAPFGRISDARVVKDMATGKSKGYGFVSFFNKWDAENAIQQMGGQWLGGRQIRTNWATRKPPAPKSTYESNTKQLSYDEVVNQSSPSNCTVYCGGVTSGLTEQLMRQTFSPFGQIMEIRVFPDKGYSFVRFNSHESAAHAIVSVNGTTIEGHVVKCYWGKETLDMINPVQQQNQIGYPQPYGQWGQWYGNAQQIGQYMPNGWQVPAYGMYGQAWNQQGFNQTQSSAPWMGPNYGVQPPQGQNGSMLPNQPSGYRVAGYETQ
notes: T-cell intracellular antigen-1 (TIA-1), human, full length, 386 residues (three RRMs followed by the PLD); also called full-length TIA-1; FL; source: recombinant
B2: full-length human TIA-1 A381T (natural protein, UniProt P31483 1-386, looked up)
chain: B1 chain with A381T
notes: TIA-1, human, full length, 386 residues, with the disease-associated missense mutation A381T; source: recombinant
B3: full-length human TIA-1 G355R (natural protein, UniProt P31483 1-386, looked up)
chain: B1 chain with G355R
notes: TIA-1, human, full length, 386 residues, with the missense mutation G355R (found in genetic research on ALS/FTD); source: recombinant
B4: full-length human TIA-1 E384K (natural protein, UniProt P31483 1-386, looked up)
chain: B1 chain with E384K
notes: TIA-1, human, full length, 386 residues, with the disease-associated missense mutation E384K; source: recombinant
B5: full-length human TIA-1 P362L (natural protein, UniProt P31483 1-386, looked up)
chain: B1 chain with P362L
notes: TIA-1, human, full length, 386 residues, with the disease-associated missense mutation P362L; source: recombinant
B6: human TIA-1 sPLD (residues 320-386) G343P (domain or fragment, UniProt P31483 320-386, looked up)
chain: GQYMPNGWQVPAYGMYGQAWNQQPFNQTQSSAPWMGPNYGVQPPQGQNGSMLPNQPSGYRVAGYETQ
notes: TIA-1, human, short PLD, residues 320-386, with G343P
B7: human TIA-1 sPLD (residues 320-386) Q348L (domain or fragment, UniProt P31483 320-386, looked up)
chain: B6 chain with P24G, Q29L
notes: TIA-1, human, short PLD, residues 320-386, with Q348L
B8: human TIA-1 sPLD (residues 320-386) W339A (domain or fragment, UniProt P31483 320-386, looked up)
chain: B6 chain with W20A, P24G
notes: TIA-1, human, short PLD, residues 320-386, with W339A
B9: human TIA-1 sPLD (residues 320-386) P362L (domain or fragment, UniProt P31483 320-386, looked up)
chain: B6 chain with P24G, P43L
notes: TIA-1, human, short PLD, residues 320-386, with the disease-associated missense mutation P362L
B10: human TIA-1 sPLD (residues 320-386) Q346L (domain or fragment, UniProt P31483 320-386, looked up)
chain: B6 chain with P24G, Q27L
notes: TIA-1, human, short PLD, residues 320-386, with Q346L
B11: human TIA-1 sPLD (residues 320-386) A381T (domain or fragment, UniProt P31483 320-386, looked up)
chain: B6 chain with P24G, A62T
notes: TIA-1, human, short PLD, residues 320-386, with the disease-associated missense mutation A381T
B12: human TIA-1 sPLD (residues 320-386) W353A (domain or fragment, UniProt P31483 320-386, looked up)
chain: B6 chain with P24G, W34A
notes: TIA-1, human, short PLD, residues 320-386, with W353A
B13: human TIA-1 sPLD (residues 320-386) M354A (domain or fragment, UniProt P31483 320-386, looked up)
chain: B6 chain with P24G, M35A
notes: TIA-1, human, short PLD, residues 320-386, with M354A
B14: human TIA-1 sPLD (residues 320-386) E384K (domain or fragment, UniProt P31483 320-386, looked up)
chain: B6 chain with P24G, E65K
notes: TIA-1, human, short PLD, residues 320-386, with the disease-associated missense mutation E384K
B15: human wild-type TIA-1 short prion-like domain (sPLD), residues 320-386 (domain or fragment, UniProt P31483 320-386, looked up)
chain: B6 chain with P24G
notes: T-cell intracellular antigen-1 (TIA-1), human, 386 residues; short PLD, residues 320-386; Only residues 336-360 are resolved in the fibril structure; also called WT TIA-1 sPLD; TIA-1 sPLD
B16: human TIA-1 sPLD (residues 320-386) with the G355R missense mutation (domain or fragment, UniProt P31483 320-386, looked up)
chain: B6 chain with P24G, G36R
notes: TIA-1, human, short PLD, residues 320-386, with G355R (found in genetic research on ALS/FTD); Only residues 334-349 are resolved in the fibril structure; also called G355R TIA-1 sPLD; TIA-1 G355R fibrils
B17: synthesized peptide of the 25-residue TIA-1 fibril core (TFC peptide), residues 336-360 (peptide, UniProt P31483 336-360, looked up)
peptide: GQAWNQQGFNQTQSSAPWMGPNYGV
notes: TIA-1, human, fibril core region, residues 336-360 (25 residues); also called TFC peptide fibrils; TFC fibrils; source: synthetic peptide

Target: the molecule itself
Experiment: thioflavin T fluorescence + negative-stain TEM; fibril formation of recombinant full-length TIA-1 from phase-separated condensates, with single-stranded DNA TC5, physiological buffer, 30 °C, up to 3 days

Protein	binding result
B1	binds
B2	binds
B3	binds
B4	binds
B5	binds

Target: the molecule itself
Experiment: thioflavin T fluorescence + negative-stain TEM; fibril formation of TIA-1 sPLD from phase-separated condensates, without TC5, physiological buffer, 30 °C, 3 days

Protein	binding result
B6	binds
B7	binds
B8	binds
B9	binds
B10	binds
B11	binds
B12	binds
B13	binds
B14	binds

Target: the molecule itself
Experiment: cryo-EM structure; twisted amyloid fibrils of TIA-1 sPLD; fibrils grown by adding sonicated seeds to a monomer solution in 0.1% trifluoroacetic acid; helical reconstruction, two protofilaments

Protein	binding result
B15	binds
B16	binds

Target: the molecule itself
Experiment: thioflavin T fluorescence + negative-stain TEM; fibril formation of the synthetic TFC peptide alone, 100 to 12.5 μM

Protein	binding result
B17	binds
